Results: the supplement of paper PMC9112550, “Optimization of the antimicrobial peptide Bac7 by deep mutational scanning” (BMC Biology, 2022)

The sequences below were run on Escherichia coli TOP10 (assay: shrunken log2 fold change of peptide-encoding DNA abundance (4.5 h post-induction vs induction); higher = less antimicrobial activity (less host growth inhibition)). Conditions: time post-induction: 4.5 h; library: site-saturation at positions 5, 18, 19, 20.
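Further: peptides expressed intracellularly from a pBAD plasmid library in pooled LB shake-flask culture, induced with 0.3% L-arabinose, DNA abundance read by NGS, three biological replicates, DESeq2 with apeglm shrinkage.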

Sequence	shrunken log2 fold change
RRIRFRPPRLPRPRPRPEPQPRP	0.417
RRIRIRPPRLPRPRPRPWYEPRP	-0.0153
RRIRMRPPRLPRPRPRPDHNPRP	-0.00429
RRIRGRPPRLPRPRPRPTQKPRP	1.22
RRIRGRPPRLPRPRPRPRRSPRP	0.767
RRIRYRPPRLPRPRPRPAKGPRP	-0.183
RRIRQRPPRLPRPRPRPMMSPRP	-0.0325
RRIRTRPPRLPRPRPRPWTYPRP	-0.00992
RRIRRRPPRLPRPRPRPHQTPRP	0.17
RRIRDRPPRLPRPRPRPSSGPRP	-0.0626
RRIRGRPPRLPRPRPRPPAAPRP	1.63
RRIRYRPPRLPRPRPRPQGDPRP	-0.074
RRIRIRPPRLPRPRPRPMIHPRP	-0.363
RRIRERPPRLPRPRPRPHYAPRP	-0.383
RRIRMRPPRLPRPRPRPVPCPRP	0.291
RRIRHRPPRLPRPRPRPRIGPRP	0.172
RRIRNRPPRLPRPRPRPCFVPRP	-0.147
RRIRHRPPRLPRPRPRPCIAPRP	-0.46
RRIRMRPPRLPRPRPRPLKTPRP	0.642
RRIRIRPPRLPRPRPRPTSSPRP	-0.25

Sequence	shrunken log2 fold change
RRIRGRPPRLPRPRPRPKSEPRP	0.9
RRIRWRPPRLPRPRPRPGPCPRP	0.101
RRIRFRPPRLPRPRPRPQNGPRP	-0.0443
RRIRCRPPRLPRPRPRPYGNPRP	-0.277
RRIRCRPPRLPRPRPRPIWSPRP	0.162
RRIRNRPPRLPRPRPRPIMFPRP	-0.0388
RRIRERPPRLPRPRPRPSVEPRP	-0.326
RRIRSRPPRLPRPRPRPHWVPRP	-0.166
RRIRQRPPRLPRPRPRPAQPPRP	0.187
RRIRTRPPRLPRPRPRPSKFPRP	-0.624
RRIRWRPPRLPRPRPRPASNPRP	-0.0347
RRIRKRPPRLPRPRPRPYGYPRP	-0.0282
RRIRMRPPRLPRPRPRPRYFPRP	0.0308
RRIRLRPPRLPRPRPRPNNRPRP	-0.79
RRIRGRPPRLPRPRPRPYSIPRP	0.273
RRIRCRPPRLPRPRPRPRPDPRP	0.276
RRIRLRPPRLPRPRPRPLGQPRP	0.0405
RRIRGRPPRLPRPRPRPESKPRP	1.32
RRIRVRPPRLPRPRPRPGYRPRP	-0.203
RRIRRRPPRLPRPRPRPKFYPRP	-0.102

Sequence	shrunken log2 fold change
RRIRNRPPRLPRPRPRPPYGPRP	-0.0471
RRIRMRPPRLPRPRPRPVFHPRP	-0.341
RRIRGRPPRLPRPRPRPIVMPRP	-0.0978
RRIRNRPPRLPRPRPRPGNTPRP	-0.896
RRIRFRPPRLPRPRPRPAMFPRP	-0.292
RRIRQRPPRLPRPRPRPMQAPRP	0.116
RRIRWRPPRLPRPRPRPTLDPRP	0.745
RRIRYRPPRLPRPRPRPAENPRP	-0.317
RRIRFRPPRLPRPRPRPHWRPRP	0.121
RRIRSRPPRLPRPRPRPLPPPRP	0.518
RRIRFRPPRLPRPRPRPEEIPRP	0.0025
RRIRWRPPRLPRPRPRPMIHPRP	-0.0666
RRIRVRPPRLPRPRPRPQKFPRP	-0.278
RRIRARPPRLPRPRPRPHTIPRP	-0.734
RRIRTRPPRLPRPRPRPDPFPRP	-0.0199
RRIRMRPPRLPRPRPRPWNAPRP	-0.0284
RRIRYRPPRLPRPRPRPNMHPRP	-0.934
RRIRIRPPRLPRPRPRPCAHPRP	0.0482
RRIRGRPPRLPRPRPRPCFCPRP	0.609
RRIRTRPPRLPRPRPRPNKWPRP	0.0213
